Assay results as given in paper PMC2713185.

Molecular target: TMR-PDZ(C338) domain of Dvl1 (mouse) (UniProt P51141)
Experiment: other fluorescence titration

Sequence of UniProt P51141 (P51141 251-341): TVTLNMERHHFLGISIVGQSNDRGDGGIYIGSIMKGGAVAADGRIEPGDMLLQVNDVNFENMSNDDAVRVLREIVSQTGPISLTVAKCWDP

Kd [µM] | Substance
2 | tripeptide VWV
71 | tripeptide VVV
